Seven molecules from patent US20260217833A1 (APTEVO RESEARCH AND DEVELOPMENT, published 2026) can be followed below.

Numbering of substitutions follows the chain as printed.

Sequences and labels used below:
B1: CD4001071 (bispecific antibody)
Fc-Knob x PDL_5F9: EPKSSDKTHTCPPCPAPPAAAPSVFLFPPKPKDTLMISRTPEVTCVVVDVSHEDPEVKFNWYVDGVEVHNAKTKPREEQYNSTYRVVSVLTVLHQDWLNGKEYKCAVSNKALPAPIEKTISKAKGQPREPQVYTLPPSRDELTKNQVSLWCLVKGFYPSDIAVEWESNGQPENNYKTTPPVLDSDGSFFLYSKLTVDKSRWQQGNVFSCSVMHEALHNHYTQKSLSLSPGGGGSPSEVQLVESGGGLVKPGGSLRLSCAASGFTFSDYGMAWVRQAPGKGLEWVAFITSLAYIIYYADSVKGRFTISRDNAKNSLYLQMNSLRAEDTAVYYCARNYGSSPYYFDYWGQGTLVTVSSGGGGSGGGGSGGGGSGGGGSDIQMTQSPSSLSASVGDRVTITCRASQDINKFLSWYQQKPGKAPKLLIHYTSSLQPGVPSRFSGSGSGTDFTLTISSLQPEDFATYYCLQYDNLYTFGQGTKLEIK
CD40_5B9 x Fc-Hole x PDL_5F9: DVVMTQTPLSLPVSLGDQASISCRSSQSLVHYNGYTYLHWYLQKPGQSPKLLIYKVSNRFSGVPDRFSGSGSGTDFTLKISRVEAEDLGVYFCSQTTHVPLTFGAGTKLELRGGGGSGGGGSGGGGSGGGGSEVMLVESGGGLVKPGGSLKLSCAASGFTFSSYAMSWVRQTPERRLEWVASISSAGTYIYYPDSVKGRFTISRDNAKNILYLQMNSLRSEDTAMYYCARHGNGYDPLWYFDVWGAGTTVTVSSEPKSSDKTHTCPPCPAPPAAAPSVFLFPPKPKDTLMISRTPEVTCVVVDVSHEDPEVKFNWYVDGVEVHNAKTKPREEQYNSTYRVVSVLTVLHQDWLNGKEYKCAVSNKALPAPIEKTISKAKGQPREPQVYTLPPSRDELTKNQVSLSCAVKGFYPSDIAVEWESNGQPENNYKTTPPVLDSDGSFFLVSKLTVDKSRWQQGNVFSCSVMHEALHNRFTQKSLSLSPGGGGSPSEVQLVESGGGLVKPGGSLRLSCAASGFTFSDYGMAWVRQAPGKGLEWVAFITSLAYIIYYADSVKGRFTISRDNAKNSLYLQMNSLRAEDTAVYYCARNYGSSPYYFDYWGQGTLVTVSSGGGGSGGGGSGGGGSGGGGSDIQMTQSPSSLSASVGDRVTITCRASQDINKFLSWYQQKPGKAPKLLIHYTSSLQPGVPSRFSGSGSGTDFTLTISSLQPEDFATYYCLQYDNLYTFGQGTKLEIK
B2: CD4001072 (bispecific antibody)
Fc-Knob x PDL_5F9: B1 Fc-Knob x PDL_5F9
CD40_1D5 x Fc-Hole x PDL_5F9: DIVMSQSPSSLAVSVGEKVTMSCKSSQSLLFSVNQKNYLAWYQQKPGQSPKLLIYWASTRESGVPDRFTGSGSGTDFTLTIGSVKAEDLAVYYCQHYYSYPWTFGGGTKLEIKGGGGSGGGGSGGGGSGGGGSQVQLQQSGAELMNPGASVRISCKATGYTFSTSWIEWIKQRPGHGLEWIGEILPGSGSTNYNEKFKGKATFTADTSSNTAYMQLSSLTFEDSAVYYCARGDDGSYVRWYFDVWGAGTTVTVSSEPKSSDKTHTCPPCPAPPAAAPSVFLFPPKPKDTLMISRTPEVTCVVVDVSHEDPEVKFNWYVDGVEVHNAKTKPREEQYNSTYRVVSVLTVLHQDWLNGKEYKCAVSNKALPAPIEKTISKAKGQPREPQVYTLPPSRDELTKNQVSLSCAVKGFYPSDIAVEWESNGQPENNYKTTPPVLDSDGSFFLVSKLTVDKSRWQQGNVFSCSVMHEALHNRFTQKSLSLSPGGGGSPSEVQLVESGGGLVKPGGSLRLSCAASGFTFSDYGMAWVRQAPGKGLEWVAFITSLAYIIYYADSVKGRFTISRDNAKNSLYLQMNSLRAEDTAVYYCARNYGSSPYYFDYWGQGTLVTVSSGGGGSGGGGSGGGGSGGGGSDIQMTQSPSSLSASVGDRVTITCRASQDINKFLSWYQQKPGKAPKLLIHYTSSLQPGVPSRFSGSGSGTDFTLTISSLQPEDFATYYCLQYDNLYTFGQGTKLEIK
B3: CD4001075 (bispecific antibody)
CD40_1D5 x Fc-Knob: DIVMSQSPSSLAVSVGEKVTMSCKSSQSLLFSVNQKNYLAWYQQKPGQSPKLLIYWASTRESGVPDRFTGSGSGTDFTLTIGSVKAEDLAVYYCQHYYSYPWTFGGGTKLEIKGGGGSGGGGSGGGGSGGGGSQVQLQQSGAELMNPGASVRISCKATGYTFSTSWIEWIKQRPGHGLEWIGEILPGSGSTNYNEKFKGKATFTADTSSNTAYMQLSSLTFEDSAVYYCARGDDGSYVRWYFDVWGAGTTVTVSSEPKSSDKTHTCPPCPAPPAAAPSVFLFPPKPKDTLMISRTPEVTCVVVDVSHEDPEVKFNWYVDGVEVHNAKTKPREEQYNSTYRVVSVLTVLHQDWLNGKEYKCAVSNKALPAPIEKTISKAKGQPREPQVYTLPPSRDELTKNQVSLWCLVKGFYPSDIAVEWESNGQPENNYKTTPPVLDSDGSFFLYSKLTVDKSRWQQGNVFSCSVMHEALHNHYTQKSLSLSPG
CD40_1D5 x Fc-Hole x PDL_5F9: B2 CD40_1D5 x Fc-Hole x PDL_5F9
B4: CD4001067 (bispecific antibody)
PDL_5F9 x Fc-Knob: EVQLVESGGGLVKPGGSLRLSCAASGFTFSDYGMAWVRQAPGKGLEWVAFITSLAYIIYYADSVKGRFTISRDNAKNSLYLQMNSLRAEDTAVYYCARNYGSSPYYFDYWGQGTLVTVSSGGGGSGGGGSGGGGSGGGGSDIQMTQSPSSLSASVGDRVTITCRASQDINKFLSWYQQKPGKAPKLLIHYTSSLQPGVPSRFSGSGSGTDFTLTISSLQPEDFATYYCLQYDNLYTFGQGTKLEIKEPKSSDKTHTCPPCPAPPAAAPSVFLFPPKPKDTLMISRTPEVTCVVVDVSHEDPEVKFNWYVDGVEVHNAKTKPREEQYNSTYRVVSVLTVLHQDWLNGKEYKCAVSNKALPAPIEKTISKAKGQPREPQVYTLPPSRDELTKNQVSLWCLVKGFYPSDIAVEWESNGQPENNYKTTPPVLDSDGSFFLYSKLTVDKSRWQQGNVFSCSVMHEALHNHYTQKSLSLSPG
CD40_2H7 x Fc-Hole: DIVMTQSHKFMSTSVGDRVSITCKASQDVNTAVAWYQQKPGQSPKLLIYSASYRYTGVPDRFTGSGSGTDFTFTISSVQAEDLAVYYCQQHYSTPWTFGGGTKLEIKGGGGSGGGGSGGGGSGGGGSQVQLQQSGAELAKPGASVKMSCKASGYAFTTYWMHWVKQRPGQGLEWIGYINPTTGYTDYNQKFKDKATLTADKSSSTAYMQLSSLTSEDSAVYYCARWGLPPFAYWGQGTLVTVSAEPKSSDKTHTCPPCPAPPAAAPSVFLFPPKPKDTLMISRTPEVTCVVVDVSHEDPEVKFNWYVDGVEVHNAKTKPREEQYNSTYRVVSVLTVLHQDWLNGKEYKCAVSNKALPAPIEKTISKAKGQPREPQVYTLPPSRDELTKNQVSLSCAVKGFYPSDIAVEWESNGQPENNYKTTPPVLDSDGSFFLVSKLTVDKSRWQQGNVFSCSVMHEALHNRFTQKSLSLSPG
B5: CD4001069 (bispecific antibody)
PDL_5F9 x Fc-Knob: B4 PDL_5F9 x Fc-Knob
CD40_1D5 x Fc-Hole: B3 CD40_1D5 x Fc-Knob with W405S, L407A, Y446V, H474R, Y475F
B6: CD4001078 (bispecific antibody)
PDL_5F9 x Fc-Knob: B4 PDL_5F9 x Fc-Knob
PDL_5F9 x Fc-Hole x CD40_1D5: EVQLVESGGGLVKPGGSLRLSCAASGFTFSDYGMAWVRQAPGKGLEWVAFITSLAYIIYYADSVKGRFTISRDNAKNSLYLQMNSLRAEDTAVYYCARNYGSSPYYFDYWGQGTLVTVSSGGGGSGGGGSGGGGSGGGGSDIQMTQSPSSLSASVGDRVTITCRASQDINKFLSWYQQKPGKAPKLLIHYTSSLQPGVPSRFSGSGSGTDFTLTISSLQPEDFATYYCLQYDNLYTFGQGTKLEIKEPKSSDKTHTCPPCPAPPAAAPSVFLFPPKPKDTLMISRTPEVTCVVVDVSHEDPEVKFNWYVDGVEVHNAKTKPREEQYNSTYRVVSVLTVLHQDWLNGKEYKCAVSNKALPAPIEKTISKAKGQPREPQVYTLPPSRDELTKNQVSLSCAVKGFYPSDIAVEWESNGQPENNYKTTPPVLDSDGSFFLVSKLTVDKSRWQQGNVFSCSVMHEALHNRFTQKSLSLSPGGGGSPSDIVMSQSPSSLAVSVGEKVTMSCKSSQSLLFSVNQKNYLAWYQQKPGQSPKLLIYWASTRESGVPDRFTGSGSGTDFTLTIGSVKAEDLAVYYCQHYYSYPWTFGGGTKLEIKGGGGSGGGGSGGGGSGGGGSQVQLQQSGAELMNPGASVRISCKATGYTFSTSWIEWIKQRPGHGLEWIGEILPGSGSTNYNEKFKGKATFTADTSSNTAYMQLSSLTFEDSAVYYCARGDDGSYVRWYFDVWGAGTTVTVSS
B7: CD4001076 (bispecific antibody)
PDL_5F9 x Fc-Knob: B4 PDL_5F9 x Fc-Knob
PDL_5F9 x Fc-Hole x CD40_2H7: EVQLVESGGGLVKPGGSLRLSCAASGFTFSDYGMAWVRQAPGKGLEWVAFITSLAYIIYYADSVKGRFTISRDNAKNSLYLQMNSLRAEDTAVYYCARNYGSSPYYFDYWGQGTLVTVSSGGGGSGGGGSGGGGSGGGGSDIQMTQSPSSLSASVGDRVTITCRASQDINKFLSWYQQKPGKAPKLLIHYTSSLQPGVPSRFSGSGSGTDFTLTISSLQPEDFATYYCLQYDNLYTFGQGTKLEIKEPKSSDKTHTCPPCPAPPAAAPSVFLFPPKPKDTLMISRTPEVTCVVVDVSHEDPEVKFNWYVDGVEVHNAKTKPREEQYNSTYRVVSVLTVLHQDWLNGKEYKCAVSNKALPAPIEKTISKAKGQPREPQVYTLPPSRDELTKNQVSLSCAVKGFYPSDIAVEWESNGQPENNYKTTPPVLDSDGSFFLVSKLTVDKSRWQQGNVFSCSVMHEALHNRFTQKSLSLSPGGGGSPSDIVMTQSHKFMSTSVGDRVSITCKASQDVNTAVAWYQQKPGQSPKLLIYSASYRYTGVPDRFTGSGSGTDFTFTISSVQAEDLAVYYCQQHYSTPWTFGGGTKLEIKGGGGSGGGGSGGGGSGGGGSQVQLQQSGAELAKPGASVKMSCKASGYAFTTYWMHWVKQRPGQGLEWIGYINPTTGYTDYNQKFKDKATLTADKSSSTAYMQLSSLTSEDSAVYYCARWGLPPFAYWGQGTLVTVSA

T1 sequence (Q9NZQ7 19-290): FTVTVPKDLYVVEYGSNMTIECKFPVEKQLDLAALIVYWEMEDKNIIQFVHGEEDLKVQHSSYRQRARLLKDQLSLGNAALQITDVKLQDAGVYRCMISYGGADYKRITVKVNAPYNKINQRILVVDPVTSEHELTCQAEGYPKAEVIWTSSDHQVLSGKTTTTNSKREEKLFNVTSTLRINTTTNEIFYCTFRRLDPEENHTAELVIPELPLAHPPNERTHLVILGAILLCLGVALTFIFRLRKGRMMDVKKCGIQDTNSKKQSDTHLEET

This assay concerns the target T1, Human PD-L1 full-length (human, UniProt Q9NZQ7 19-290).
T1 construct: also called PDL01021; CHOK1SV/huPDL1
The assay is described as follows: flow cytometry, CHOK1SV/human PD-L1 cells. On the technique in general: A flow cytometer gives signals particle by particle.
Take B1: the binding result was “binds”. The same measure for B2: “binds”; for B3: “binds”. The same measure for B4: “binds”; for B5: “binds”. The same measure for B6: “binds”.

In the case of B7, the binding result is on record as “binds”.
